91 sequences from the supplement of paper PMC9112550, “Optimization of the antimicrobial peptide Bac7 by deep mutational scanning” (BMC Biology, 2022) can be followed below.
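Note: peptides expressed intracellularly from a pBAD plasmid library in pooled LB shake-flask culture, induced with 0.3% L-arabinose, DNA abundance read by NGS, three biological replicates, DESeq2 with apeglm shrinkage.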

The series concerns Escherichia coli TOP10. The series is described as follows: shrunken log2 fold change of peptide-encoding DNA abundance (4.5 h post-induction vs induction); higher = less antimicrobial activity (less host growth inhibition). The note with it: time post-induction: 4.5 h; library: site-saturation at positions 5, 18, 19, 20.
Take RRIRCRPPRLPRPRPRPCVLPRP: the “shrunken log2 fold change” value is -0.7.

On to RRIRMRPPRLPRPRPRPEYEPRP, for which the “shrunken log2 fold change” value worked out at 0.644.

Regarding RRIRSRPPRLPRPRPRPTIYPRP, the “shrunken log2 fold change” value is -0.405.

As for RRIRLRPPRLPRPRPRPCQDPRP, the “shrunken log2 fold change” value came out at 0.0219.

For RRIRPRPPRLPRPRPRPELNPRP, the “shrunken log2 fold change” value is 0.117.

On to RRIRIRPPRLPRPRPRPCDHPRP, for which the “shrunken log2 fold change” value was -0.752.

Consider RRIRIRPPRLPRPRPRPSCSPRP, for which the “shrunken log2 fold change” value was -0.83.

RRIRFRPPRLPRPRPRPVRFPRP: the “shrunken log2 fold change” value was 0.429.

With RRIRARPPRLPRPRPRPMISPRP, the “shrunken log2 fold change” value is 0.501.

On to RRIRARPPRLPRPRPRPQHKPRP, for which the “shrunken log2 fold change” value stood at 0.292.

RRIRYRPPRLPRPRPRPRHEPRP: the “shrunken log2 fold change” value was -0.802.

Take RRIRMRPPRLPRPRPRPHVAPRP: the “shrunken log2 fold change” value turned out to be 0.00497.

RRIRTRPPRLPRPRPRPVTGPRP: the “shrunken log2 fold change” value was -0.083.

With RRIRARPPRLPRPRPRPACLPRP, the “shrunken log2 fold change” value came out at 0.347.

Turning to RRIRERPPRLPRPRPRPARGPRP, the “shrunken log2 fold change” value came to 0.644.

Consider RRIRWRPPRLPRPRPRPPEPPRP, for which the “shrunken log2 fold change” value was -0.011.

RRIRNRPPRLPRPRPRPFVPPRP: the “shrunken log2 fold change” value is -0.263.

Regarding RRIRGRPPRLPRPRPRPTAMPRP, the “shrunken log2 fold change” value amounted to 2.78.

Turning to RRIRERPPRLPRPRPRPGHAPRP, the “shrunken log2 fold change” value amounted to 0.304.

Take RRIRIRPPRLPRPRPRPTLLPRP: the “shrunken log2 fold change” value is -0.374.

On to RRIRIRPPRLPRPRPRPPAQPRP, for which the “shrunken log2 fold change” value is 0.0916.

In the case of RRIRPRPPRLPRPRPRPICHPRP, the “shrunken log2 fold change” value is -0.0574.

As for RRIRPRPPRLPRPRPRPNVMPRP, the “shrunken log2 fold change” value was -0.341.

With RRIRCRPPRLPRPRPRPVAPPRP, the “shrunken log2 fold change” value came out at 0.436.

On to RRIRCRPPRLPRPRPRPTEGPRP, for which the “shrunken log2 fold change” value was 0.284.

In the case of RRIRFRPPRLPRPRPRPSHWPRP, the “shrunken log2 fold change” value came out at 0.0131.

Consider RRIRWRPPRLPRPRPRPCWHPRP, for which the “shrunken log2 fold change” value is -0.259.

As to RRIRLRPPRLPRPRPRPFVIPRP, the “shrunken log2 fold change” value is -0.214.

Regarding RRIRGRPPRLPRPRPRPKRCPRP, the “shrunken log2 fold change” value is 0.788.

For RRIRRRPPRLPRPRPRPAFWPRP, the “shrunken log2 fold change” value came out at 0.547.

As to RRIRERPPRLPRPRPRPRKHPRP, the “shrunken log2 fold change” value came to 0.0582.

RRIRCRPPRLPRPRPRPMCGPRP: the “shrunken log2 fold change” value was -0.0984.

As for RRIRARPPRLPRPRPRPILHPRP, the “shrunken log2 fold change” value is -0.0341.

As to RRIRERPPRLPRPRPRPLLQPRP, the “shrunken log2 fold change” value is -0.0771.

Take RRIRYRPPRLPRPRPRPKHPPRP: the “shrunken log2 fold change” value is -0.155.

Consider RRIRDRPPRLPRPRPRPKYYPRP, for which the “shrunken log2 fold change” value is -0.193.

Turning to RRIRCRPPRLPRPRPRPYFAPRP, the “shrunken log2 fold change” value was -0.563.

Regarding RRIRERPPRLPRPRPRPAGKPRP, the “shrunken log2 fold change” value was -0.0958.

Regarding RRIRGRPPRLPRPRPRPAEMPRP, the “shrunken log2 fold change” value was 0.621.

Turning to RRIRERPPRLPRPRPRPADHPRP, the “shrunken log2 fold change” value is -0.0618.

With RRIRIRPPRLPRPRPRPTNDPRP, the “shrunken log2 fold change” value is -0.246.

As for RRIRKRPPRLPRPRPRPCYSPRP, the “shrunken log2 fold change” value was -0.178.

Consider RRIRVRPPRLPRPRPRPNSTPRP, for which the “shrunken log2 fold change” value is -0.515.

Turning to RRIRSRPPRLPRPRPRPIYSPRP, the “shrunken log2 fold change” value turned out to be 0.101.

For RRIRFRPPRLPRPRPRPLPEPRP, the “shrunken log2 fold change” value stood at 0.224.

Regarding RRIRCRPPRLPRPRPRPCHIPRP, the “shrunken log2 fold change” value was -0.0941.

As for RRIRNRPPRLPRPRPRPGAYPRP, the “shrunken log2 fold change” value is -0.00116.

RRIRGRPPRLPRPRPRPFPNPRP: the “shrunken log2 fold change” value turned out to be 0.26.

For RRIRQRPPRLPRPRPRPGHKPRP, the “shrunken log2 fold change” value was -0.00306.

Take RRIRMRPPRLPRPRPRPTDRPRP: the “shrunken log2 fold change” value was 0.894.

With RRIRPRPPRLPRPRPRPQPFPRP, the “shrunken log2 fold change” value was -0.149.

In the case of RRIRLRPPRLPRPRPRPAKNPRP, the “shrunken log2 fold change” value came out at 0.00752.

As for RRIRERPPRLPRPRPRPNGDPRP, the “shrunken log2 fold change” value was -0.0249.

Take RRIRGRPPRLPRPRPRPLRMPRP: the “shrunken log2 fold change” value is 0.848.

Turning to RRIRMRPPRLPRPRPRPSPHPRP, the “shrunken log2 fold change” value came out at 0.18.

Consider RRIRIRPPRLPRPRPRPKCRPRP, for which the “shrunken log2 fold change” value is -0.452.

For RRIRGRPPRLPRPRPRPTFMPRP, the “shrunken log2 fold change” value amounted to 0.327.

As to RRIRTRPPRLPRPRPRPLKCPRP, the “shrunken log2 fold change” value was -0.249.

Take RRIRTRPPRLPRPRPRPTYPPRP: the “shrunken log2 fold change” value stood at 0.0247.

In the case of RRIRQRPPRLPRPRPRPFSIPRP, the “shrunken log2 fold change” value was -0.104.

Consider RRIRQRPPRLPRPRPRPWEIPRP, for which the “shrunken log2 fold change” value is -0.00822.

With RRIRIRPPRLPRPRPRPPLYPRP, the “shrunken log2 fold change” value is -0.331.

For the sequence RRIRKRPPRLPRPRPRPMHIPRP, the “shrunken log2 fold change” value amounted to 0.078.

Turning to RRIRDRPPRLPRPRPRPDTKPRP, the “shrunken log2 fold change” value worked out at 0.0114.

In the case of RRIRDRPPRLPRPRPRPNKPPRP, the “shrunken log2 fold change” value was -0.0743.

As to RRIRNRPPRLPRPRPRPVKDPRP, the “shrunken log2 fold change” value was -0.01.

Consider RRIRKRPPRLPRPRPRPIVVPRP, for which the “shrunken log2 fold change” value came to 0.0157.

Turning to RRIRKRPPRLPRPRPRPVCHPRP, the “shrunken log2 fold change” value turned out to be 0.199.

As to RRIRQRPPRLPRPRPRPKREPRP, the “shrunken log2 fold change” value came out at 0.119.

On to RRIRIRPPRLPRPRPRPLVPPRP, for which the “shrunken log2 fold change” value was -0.33.

As to RRIRLRPPRLPRPRPRPIWVPRP, the “shrunken log2 fold change” value is -0.0362.

For the sequence RRIRRRPPRLPRPRPRPTYNPRP, the “shrunken log2 fold change” value is -0.267.

Turning to RRIRRRPPRLPRPRPRPCNSPRP, the “shrunken log2 fold change” value is 0.00408.

For the sequence RRIRLRPPRLPRPRPRPESHPRP, the “shrunken log2 fold change” value was -0.118.

With RRIRPRPPRLPRPRPRPDMIPRP, the “shrunken log2 fold change” value turned out to be 0.249.

Regarding RRIRTRPPRLPRPRPRPPFNPRP, the “shrunken log2 fold change” value is 0.0539.

For RRIRVRPPRLPRPRPRPIIDPRP, the “shrunken log2 fold change” value is 0.0493.

Consider RRIRQRPPRLPRPRPRPEYWPRP, for which the “shrunken log2 fold change” value worked out at 0.0626.

Take RRIRRRPPRLPRPRPRPNKKPRP: the “shrunken log2 fold change” value is -0.272.

Turning to RRIRDRPPRLPRPRPRPNYEPRP, the “shrunken log2 fold change” value is -0.252.

As to RRIRSRPPRLPRPRPRPPNFPRP, the “shrunken log2 fold change” value was 0.291.

In the case of RRIRCRPPRLPRPRPRPEWAPRP, the “shrunken log2 fold change” value amounted to 0.292.

As for RRIRFRPPRLPRPRPRPEIEPRP, the “shrunken log2 fold change” value worked out at 0.0594.

As for RRIRFRPPRLPRPRPRPRWMPRP, the “shrunken log2 fold change” value was -0.149.

Regarding RRIRSRPPRLPRPRPRPNWHPRP, the “shrunken log2 fold change” value is -0.137.

With RRIRNRPPRLPRPRPRPIWYPRP, the “shrunken log2 fold change” value is -0.0752.

In the case of RRIRFRPPRLPRPRPRPLMQPRP, the “shrunken log2 fold change” value was -0.0117.

On to RRIRMRPPRLPRPRPRPCNTPRP, for which the “shrunken log2 fold change” value was -0.238.

As to RRIRARPPRLPRPRPRPITWPRP, the “shrunken log2 fold change” value was 0.0845.

In the case of RRIRARPPRLPRPRPRPNLYPRP, the “shrunken log2 fold change” value was -0.345.

In the case of RRIRKRPPRLPRPRPRPTLFPRP, the “shrunken log2 fold change” value was 0.111.
